The text below walks through data of US20180142032A1 (Sanofi, published 2018).

Experiment [1] has as its target T1, mLAMP1_L1_LAMP1_L234::histag (mouse/human hybrid).
T1 construct: also called Loop1: mLAMP1 Loop2-4: hLAMP1
T1 chain: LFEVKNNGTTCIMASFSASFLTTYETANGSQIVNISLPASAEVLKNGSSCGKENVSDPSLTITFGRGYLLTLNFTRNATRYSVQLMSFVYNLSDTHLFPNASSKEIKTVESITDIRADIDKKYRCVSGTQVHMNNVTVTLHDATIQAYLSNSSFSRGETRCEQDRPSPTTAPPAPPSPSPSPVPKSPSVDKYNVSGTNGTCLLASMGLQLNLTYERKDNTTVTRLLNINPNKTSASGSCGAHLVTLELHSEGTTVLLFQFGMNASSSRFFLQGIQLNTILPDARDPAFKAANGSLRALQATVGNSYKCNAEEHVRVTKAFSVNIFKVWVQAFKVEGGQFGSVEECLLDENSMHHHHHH
Briefly: ELISA. A general note: In an ELISA, binding on a coated surface is turned into a signal by an enzyme label.

Experiment [2] deals with T2, mLAMP1::histag (mouse, UniProt P11438 25-369).
T2 construct: also called mouse LAMP1 (25-369); Mouse LAMP1
T2 sequence: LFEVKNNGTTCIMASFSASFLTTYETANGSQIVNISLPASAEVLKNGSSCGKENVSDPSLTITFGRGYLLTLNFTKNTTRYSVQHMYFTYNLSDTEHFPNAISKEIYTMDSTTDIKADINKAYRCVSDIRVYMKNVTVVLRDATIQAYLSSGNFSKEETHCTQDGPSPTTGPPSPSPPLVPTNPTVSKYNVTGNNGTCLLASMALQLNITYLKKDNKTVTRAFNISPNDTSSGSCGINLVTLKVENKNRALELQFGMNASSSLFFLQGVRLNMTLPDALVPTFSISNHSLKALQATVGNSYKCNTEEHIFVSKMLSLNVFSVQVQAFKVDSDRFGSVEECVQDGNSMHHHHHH
Kind of experiment: ELISA.

Experiment [3] concerns the target T3, LAMP1::histag (human, UniProt P11279 29-382).
T3 construct: extracellular domain without signal peptide, C-terminal 6 His tag, made in HEK293 cells; also called recombinant human LAMP1; human LAMP1 (29-382)
T3 sequence: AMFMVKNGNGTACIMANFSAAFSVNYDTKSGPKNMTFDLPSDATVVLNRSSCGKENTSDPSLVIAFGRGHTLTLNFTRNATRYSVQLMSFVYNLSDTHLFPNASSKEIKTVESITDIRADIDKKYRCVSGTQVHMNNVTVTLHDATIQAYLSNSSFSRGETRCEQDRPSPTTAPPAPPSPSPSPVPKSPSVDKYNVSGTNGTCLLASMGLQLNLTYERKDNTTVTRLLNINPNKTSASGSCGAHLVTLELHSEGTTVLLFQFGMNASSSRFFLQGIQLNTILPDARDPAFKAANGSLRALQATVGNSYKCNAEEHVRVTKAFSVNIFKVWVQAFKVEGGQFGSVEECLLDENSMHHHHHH
Kind of experiment: ELISA.

Experiment [4] concerns the target T4, LAMP1_L123_mLAMP1_L4::histag (human/mouse hybrid, UniProt P11279 29-375).
T4 construct: human LAMP1 (29-309) and mouse LAMP1 (299-369), His tag; also called Loop1-3: hLAMP1 Loop4: mLAMP1
T4 chain: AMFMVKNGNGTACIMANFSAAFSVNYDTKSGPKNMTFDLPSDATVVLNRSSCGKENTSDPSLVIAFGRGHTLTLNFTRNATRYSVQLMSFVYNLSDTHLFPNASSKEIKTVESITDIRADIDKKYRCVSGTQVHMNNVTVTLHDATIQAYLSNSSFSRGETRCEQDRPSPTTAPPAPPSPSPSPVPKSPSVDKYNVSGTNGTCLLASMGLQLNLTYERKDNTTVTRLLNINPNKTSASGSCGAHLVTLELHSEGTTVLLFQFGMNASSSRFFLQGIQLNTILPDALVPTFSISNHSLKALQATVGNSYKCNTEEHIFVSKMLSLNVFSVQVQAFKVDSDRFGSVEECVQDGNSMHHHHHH
Kind of experiment: ELISA.

Experiment [5] has as its target T5, mLAMP1_ΔGYQTI (mouse, UniProt P11438 25-369).
T5 construct: on cells; also called pXL6009; murine LAMP1; not shown: murine transmembrane domain and cytoplasmic tail with GYQTI replaced by 5 Ala
T5 sequence: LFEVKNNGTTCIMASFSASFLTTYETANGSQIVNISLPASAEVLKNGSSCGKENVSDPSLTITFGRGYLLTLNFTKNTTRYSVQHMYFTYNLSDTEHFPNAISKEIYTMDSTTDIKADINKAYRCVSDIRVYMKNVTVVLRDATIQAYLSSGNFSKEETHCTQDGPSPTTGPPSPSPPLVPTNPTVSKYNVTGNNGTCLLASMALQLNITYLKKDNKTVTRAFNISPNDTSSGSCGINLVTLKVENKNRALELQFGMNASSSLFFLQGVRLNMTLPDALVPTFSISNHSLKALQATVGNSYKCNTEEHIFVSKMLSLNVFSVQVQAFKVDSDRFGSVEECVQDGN
Briefly: flow cytometry, transfected 293-F cells, experiment 1. On the technique in general: Flow cytometry measures light scatter and fluorescence of single cells or particles in a stream.

For experiment [6], the target named is T6, mLAMP1_hseq6-11_ΔGYQTI (mouse; human, UniProt P11438 25-369).
T6 construct: on cells; also called pXL6041; not shown: murine transmembrane domain and cytoplasmic tail with GYQTI replaced by 5 Ala
T6 chain: T5 sequence with Y68H, L69T, K76R, T78A, S151N, G152S, N153S, K156R, E157G
The description is as above.

Numbering of substitutions follows the chain as printed.

B1: MAb2 (antibody, mouse IgG1, kappa)
heavy: QVQLQQSAAELARPGASVKMSCKASGYTFTSYTMHWVKQRPGQGLEWIGYFNPSSGYPEYNQKFKDKTTLTADKSSNTAFIQLNSLTSEDSAVYYCSRGYYYGSRGYALDFWGQGASVTVSSAKTTPPSVYPLAPGSAAQTNSMVTLGCLVKGYFPEPVTVTWNSGSLSSGVHTFPAVLQSDLYTLSSSVTVPSSTWPSETVTCNVAHPASSTKVDKKIVPRDCGCKPCICTVPEVSSVFIFPPKPKDVLTITLTPKVTCVVVDISKDDPEVQFSWFVDDVEVHTAQTQPREEQFNSTFRSVSELPIMHQDWLNGKEFKCRVNSAAFPAPIEKTISKTKGRPKAPQVYTIPPPKEQMAKDKVSLTCMITDFFPEDITVEWQWNGQPAENYKNTQPIMDTDGSYFVYSKLNVQKSNWEAGNTFTCSVLHEGLHNHHTEKSLSHSPGK
light: NIVLTQSPVSLAVSLGQRATISCRASESVDINGNTFMHWYQQKPGQSPKLVIYAASNIESGVPARFSGSGSSTDFTFTIDPVEADDVATYYCQQNIEDPWTFGGGTKVEIKRADAAPTVSIFPPSSEQLTSGGASVVCFLNNFYPKDINVKWKIDGSERQNGVLNSWTDQDSKDSTYSMSSTLTLTKDEYERHNSYTCEATHKTSTSPIVKSFNRNEC
notes: murine monoclonal IgG, kappa, from hybridoma; also called murine MAb2
Turning to B1, the binding result in experiment [1], in experiment [2], in experiment [5] and in experiment [6] was “no binding” each time. The EC50 in experiment [3] and in experiment [4] was 0.25 nM in each case. In addition, the mean fluorescence came to 21 in experiment [5] and 28 in experiment [6].

B2: MAb1 (antibody, mouse IgG2a, kappa)
heavy: QVQLQQSGAELVKPGASVKMSCKASGYIFTNYNIHWVKKSPGQGLEWIGAIYPGNGDAPYSQKFKDKATLTADKSSSTTYMQLSRLTSEDSAVYYCVRANWDVAFAYWGQGTLVSVSAAKTTAPSVYPLAPVCGDTTGSSVTLGCLVKGYFPEPVTLTWNSGSLSSGVHTFPAVLQSDLYTLSSSVTVTSSTWPSQSITCNVAHPASSTKVDKKIEPRGPTIKPCPPCKCPAPNLLGGPSVFIFPPKIKDVLMISLSPIVTCVVVDVSEDDPDVQISWFVNNVEVHTAQTQTHREDYNSTLRVVSALPIQHQDWMSGKEFKCKVNNKDLPAPIERTISKPKGSVRAPQVYVLPPPEEEMTKKQVTLTCMVTDFMPEDIYVEWTNNGKTELNYKNTEPVLDSDGSYFMYSKLRVEKKNWVERNSYSCSVVHEGLHNHHTTKSFSRTPGK
light: DIQMTQSPPSLSASLGGKVTITCKASQDIDRYMAWYQDKPGKGPRLLIHDTSTLQPGIPSRFSGSGSGRDYSFSISNLEPEDIATYYCLQYDNLWTFGGGTKLEIKRADAAPTVSIFPPSSEQLTSGGASVVCFLNNFYPKDINVKWKIDGSERQNGVLNSWTDQDSKDSTYSMSSTLTLTKDEYERHNSYTCEATHKTSTSPIVKSFNRNEC
notes: murine monoclonal IgG, kappa, from hybridoma; also called murine MAb1
For B2, the EC50 – broadly, the concentration at which the effect is half-maximal – in experiment [1] was determined as 0.15 nM; in experiment [3], 0.18 nM; in experiment [4], 0.16 nM. The binding result in experiment [2] and in experiment [5] was “no binding” throughout. The mean fluorescence was found to be 4 in experiment [5] and 680 in experiment [6].
